One molecule from US20210322404A1, “FGFR REGULATION FOR THE TREATMENT OF VIRAL INFECTIONS” (ETH ZURICH, priority 2016, published 2021) can be followed below.

Assay [1] relates to HSV-1. The assay is described as follows: HSV-1 infection of HaCaT cells, virus load. In kind it is cell-based, Herpes Simplex Virus type 1. The procedure:
FIGS. 5A-C relate to HaCaT cells infected with HSV-1 (MOI=0.5) after overnight serum starvation, either alone or in combination with FGF7 (10 ng/ml) or IFNα (1000U/ml). 24 h after infection, virus load was determined by qPCR for the HSV-1 Glycoprotein B (Glyc-B) gene relative to the human β-actin gene (A) or visualized by immunofluorescence staining for HSV-1 Glycoprotein D (Glyc-D) (red) (B). The Glyc-B/β-actin gene ratio in HSV-1 infected cells was set to 1. Cell nuclei were stained with DAPI (blue). Magnification bar: 200 μm. (C) Transmission microscopy images of HaCaT cells taken 48 h after HSV-1 infection. […] Magnification bar: 80 μm. Representative data out of four experiments are shown.
FIGS. 5 D & E relate to overnight-starved HaCaT cells infected with HSV-1 (MOI=0.5) alone or in combination with IFNα (1000 U/ml), IFNα and FGF7 (10 ng/ml) (D); or FGF7 at different concentrations (E).
FIG. 5F pertains to serum-starved HaCaT cells that were infected with HSV-1 (MOI 0.5-1). After 4 h, infected cells were washed with PBS, followed by addition of fresh serum-free culture medium containing FGF7 (10 ng/ml).
FIGS. 5G-K pertains to overnight-starved HaCaT cells infected with HSV-1 (MOI=0.5) alone or in combination with FGF7, which was added at the indicated time points. 12 h after infection, cells were analyzed for Glyc-B DNA (H) and, RSAD2 and IRF7 mRNA levels by qPCR/qRT-PCR (I) or for ISG protein levels by western blotting (K). Vinculin was used as loading control.
FIGS. 7A-C relate to serum-starved HaCaT cells that were infected with HSV-1 in the presence or absence of FGF7 (10 ng/ml), NSC23766 (20 μM), the FGFR kinase inhibitors AZD4547 (1 μM) and BGJ398 (3.5 μM) (A) or IFNα (1000 U/ml) (B). […] Magnification bar: 500 μm. The Glyc-D positive area was quantified using digital pixel measurements (C, right). A representative out of two experiments is shown.
Frozen sections from mouse back skin were fixed with cold methanol, and unspecific binding sites were blocked with PBS/2% bovine serum albumin (BSA) (Sigma)/1% fish skin gelatin (Sigma)/0.05% Triton X-100 (Carl Roth GmbH, Karlsruhe, Germany) for 2 h at room temperature. Samples were then incubated overnight at 4° C. with anti-IRF7 or anti-K14 antibodies diluted in the same buffer. After three washes with 1×PBS/0.1% Tween 20 (Carl Roth GmbH), slides were incubated at room temperature (RT) for 4 h with secondary antibodies (AF555-conjugated anti-rabbit IgG and AF488-conjugated anti-mouse IgG) and DAPI (4′,6-diamidino-2-phenylindole dihydrochloride) (Sigma) as counter-stain, washed again and mounted with Mowiol (Hoechst, Frankfurt, Germany). Stained sections were photographed with a Leica SP1-2 confocal microscope equipped with a 63×0.6-1.32 NA (Iris) PL Apo Oil objective. For data acquisition the Leica Confocal Software (Leica, Wetzlar, Germany) was used. For immunofluorescence staining of cultured cells, they were washed with PBS and either fixed for 5 min with cold methanol for staining with antibodies against ZO-1 and IRF7, or with 4% paraformaldehyde (PFA) (Sigma) for 20 min at RT for Glyc-D staining. PFA-fixed cells were then incubated for 10 min with 0.5% Triton X-100 in PBS. After 1 h blocking in PBS containing 2% BSA, cells were stained with the primary antibodies for 1 h in the same blocking buffer. After three washes with PBS, cells were incubated with the secondary antibodies (AF555-conjugated anti-mouse IgG, AF488-conjugated anti-mouse IgG and AF555-conjugated anti-rabbit IgG) and DAPI.

Assay [2] relates to ZIKV. The assay is described as follows: ZIKV infection of HaCaT cells. In kind it is cell-based, Zika Virus. Here is the method:
FIGS. 6B and C relate to HaCaT cells that were serum starved overnight and then infected with the ZIKV strains Uganda (strain 976) (MOI=0.1) or French-Polynesia (PF13/251013-18) (MOI˜20). 2h after infection cells were treated with 20 ng/ml FGF7 or left untreated (CTRL). Culture medium+/−FGF7 was changed every day. 48h post infection cells were analyzed by immunofluorescence using a Flavivirus group-specific antibody (4G2) detecting the ZIKV envelope protein (ZIKV-Env) (B). Magnification bar in (B): 40 μm. Alternatively, cells were analyzed for ZIKV mRNA levels by qRT-PCR relative to RPL27 (C). Mean expression levels in vehicle-treated cells were set to 1. Representative out of four independent experiments are shown.
HaCaT cells were seeded on a 4-well tissue chamber on a PCA slide (5×10^4/chamber). After overnight serum starvation, they were infected with the ZIKV strains Uganda (strain 976) (MOI=0.1) or French-Polynesia (PF13/251013-18) (MOI˜20). 2h post infection cells were treated with FGF7 or left untreated. Culture media+/−FGF7 was changed every day. 48 hours post-infection cells were either analyzed by immunofluorescence using a Flavivirus group-specific antibody (4G2) detecting the ZIKV envelope protein (ZIKV-Env) or harvested and analyzed for ZIKV expression levels by qRT-PCR relative to human RPL27 (ZIKV primers: 5′-[…] -3′, SEQ ID NO: 49; 5′-[…] -3′, SEQ ID NO: 50). To investigate the effect of ZIKV and FGF7 on ISG expression, HaCaT cells were seeded in 6-well plates. After overnight serum starvation, confluent cells were infected with the ZIKV strain French-Polynesia (PF13/251013-18) (MOI˜20) in the presence or absence of FGF7 (20 ng/ml). 72 h post-infection cells were harvested and analyzed for OAS1 and MxA by qRT-PCR relative to RPL27.

Assay [3] relates to HSV-1. The assay is described as follows: HSV-1 infection of human primary foreskin keratinocytes. The following applies: HSV-1 MOI=0.5, 24 h.

B1: FGF7: recombinant human FGF7, the classical ligand of FGFR2b (protein, UniProt P21781 32-194, looked up)
Fibroblast growth factor 7: CNDMTPEQMATNVNCSSPERHTRSYDYMEGGDIRVRRLFCRTQWYLRIDKRGKVKGTQEMKNNYNIMEIRTVAVGIVAIKGVESEFYLAMNKEGKLYAKKECNEDCNFKELILENHYNTYASAKWTHNGGEMFVALNQKGIPVRGKKTKKEQKTAHFLPMAIT
In the case of B1, in assay [1] (HaCaT infected 4 h, virus removed, FGF7 10 ng/ml for 8 h), the “viral DNA, FGF7 given after removal of the virus” value is reported as “A strong increase in viral DNA”. Also, the “appearance of HSV-1 infected cells (transmission microscopy)” value in assay [1] (HaCaT, 48 h after infection) was “completely detached”. The “IFNα-mediated reduction in viral DNA” value in assay [1] (HaCaT, HSV-1, IFNα 1000 U/ml and FGF7 10 ng/ml) is “partially reverted”. For the same molecule, in assay [1] (HaCaT, HSV-1 MOI=0.5), the “levels of viral DNA at different FGF7 concentrations” value was “induced the levels of viral DNA in a dose-dependent manner”. In assay [1] (HaCaT, HSV-1 MOI=0.5, FGF7 10 ng/ml), the “HSV-1 glycoprotein D (Glyc-D) immunofluorescence staining” value was “increased strongly”. The “viral glycoprotein B (Glyc-B) DNA” value in assay [1] (HaCaT, HSV-1 MOI=0.5, FGF7 10 ng/ml or IFNα 1000 U/ml) is listed as “A strong increase in viral DNA”. Moreover, the “HSV-1 replication, FGF7 present only for 4h” value in assay [1] (HaCaT, analysis 12 h after infection) is “no longer promoted”. Besides, the “HSV-1 replication, FGF7 added with the virus or 2h or 4h post infection” value in assay [1] (HaCaT, exposed to FGF7 for 12h, 10h or 8h) is on record as “strongly promoted HSV-1 replication”. In assay [2] (FGF7 20 ng/ml added 2 h after infection), the “ZIKV gene expression (qRT-PCR relative to RPL27)” value is recorded as “efficient when added 2 h after the infection”. For the same molecule, the “number of cells expressing the ZIKV envelope protein” value in assay [2] (FGF7 20 ng/ml, 48 h post infection) is given as “increased the number of cells expressing the ZIKV envelope protein”. Moreover, the “increase of MxA and OAS1 expression during ZIKV infection” value in assay [2] (ZIKV French-Polynesia, FGF7 20 ng/ml, 72 h) was “strongly suppressed”. In assay [3], the “effect on HSV-1 infection (Glyc-B qPCR)” value is listed as “confirmed”.
